According to patent US20090304719A1 (University of California, published 2009):
Bridges are numbered along the chain shown (N, C = ends). Where no end group is shown, it is not given here. CPX = display scaffold, circularly permuted E. coli OmpX, fused C-terminal

Tests used:
anti-VEGF scFv TBM = biological target: T1, anti-VEGF scFv TBM; experiment: FACS, peptide displayed on bacteria, anti-VEGF scFv; clones selected with labeled ranibizumab
T1 construct: The design included a His6 tag at the N-terminus and a TEV site; also called anti-VEGF single chain Fv
T1 sequence (scFv, as listed by the source): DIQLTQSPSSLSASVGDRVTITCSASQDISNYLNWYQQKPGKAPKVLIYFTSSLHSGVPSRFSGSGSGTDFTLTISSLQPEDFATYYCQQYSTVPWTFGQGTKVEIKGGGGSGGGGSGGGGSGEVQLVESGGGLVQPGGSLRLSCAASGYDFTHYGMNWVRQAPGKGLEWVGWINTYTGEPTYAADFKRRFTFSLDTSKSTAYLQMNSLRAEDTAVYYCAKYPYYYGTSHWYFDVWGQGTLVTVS
Experimental: Ranibizumab was used to screen a pooled random peptide library, consisting of peptides that are X₁₅ (8.3×10⁹), X₄CX₇CX₄ (3.6×10⁹), or X₁₂CX₃ (1.1×10⁹), where X is any amino acid and the number represents the total diversity of the library. The total diversity of the pooled library was 1.3×10¹⁰. The screening consisted of one round of MACS and […] of FACS sorting. […] In the first FACS screen, positive cells isolated in the MACS screen were probed with 500 nM biotinylated-ranibizumab, and visualized with neutrAvidin-PE (Molecular Probes, Eugene, Oreg.). The second and third rounds of FACS selections were done with 500 nM and then 100 nM Alexa-labeled ranibizumab in the presence of 20 uM IgG. Individual clones were sequenced and subsequently verified for their ability to bind anti-VEGF scfv by FACS analysis.

[1] = biological target: T2, UC4F10-11 hamster anti-mouse CTLA4 antibody; experiment: bacterial display screening against anti-CTLA4 antibody; assay for this peptide not detailed
T2 construct: Whole antibody, biotinylated or Dylight-labeled in the sorts; also called mouse anti-CTLA4 antibody (clone UC4 F10-1); anti-CTLA4
T2 sequence (VH, as listed by the source limits assumed, chain 1 of 2): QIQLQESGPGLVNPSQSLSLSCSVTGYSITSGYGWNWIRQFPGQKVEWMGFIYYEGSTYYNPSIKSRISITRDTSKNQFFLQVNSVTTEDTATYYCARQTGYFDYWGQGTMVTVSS
T2 sequence (VL, as listed by the source limits assumed, chain 2 of 2): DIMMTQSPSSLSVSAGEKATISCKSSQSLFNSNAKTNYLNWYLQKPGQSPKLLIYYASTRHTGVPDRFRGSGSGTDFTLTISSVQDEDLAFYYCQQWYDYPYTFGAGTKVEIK

VEGF [2] = biological target: T3, VEGF (UniProt P15692-4 27-191, limits assumed, biotinylated in the FACS assays (sites not given)); experiment: FACS, construct displayed on E. coli (CPX), labeled VEGF; MMP-2 treated against untreated (FIG. 25)
T3 construct: Species and isoform are never stated; also called labeled VEGF; biotinylated VEGF
T3 sequence (P15692 other isoform, or with tags, fused parts or gaps limits assumed): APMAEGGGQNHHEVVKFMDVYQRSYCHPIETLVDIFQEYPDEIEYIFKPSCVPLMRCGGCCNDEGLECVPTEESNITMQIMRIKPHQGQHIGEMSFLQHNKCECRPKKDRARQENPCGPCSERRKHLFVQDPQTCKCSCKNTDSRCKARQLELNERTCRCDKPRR
Experimental: (§1) In experiments involving addition of enzyme, 30 nM MMP-2 was included in the Tris-Cl buffer (no enzyme added to the control reaction), and the reaction mixture was incubated at room temperature for 2 hours. Cells were then removed and diluted 1:100 in PBS (pH 7.4) to stop the reaction, pelleted by centrifugation, and resuspended in 30 microliters of refrigerated PBS containing 25 nM biotinylated VEGF. After incubation in the refrigerator on a rotary shaker for 45 minutes, cells were pelleted at 4° C. and resuspended in refrigerated PBS containing 50 nM Streptavidin-Phycoerythrin fluorescent conjugate. After incubation in the refrigerator on a rotary shaker for 45 minutes, cells were pelleted at 4° C. and resuspended in PBS and red fluorescence was measured for analysis or sorting on a FACSAria cell sorter. The fluorescence of cells treated with enzyme was compared to control samples to determine the increase in VEGF binding.

VEGF [3] = biological target: T3, VEGF; experiment: FACS, construct displayed on E. coli (CPX), labeled VEGF; with MMP-2 against without (FIG. 23)
Experimental: as §1
(§2) In an additional experiment, the fluorescence values for a cysteine constrained loop structure were determined in the presence and absence of MMP-2 and compared with the fluorescence values for library clones 4.2A.11 (a.k.a. 4-2A-11) and 2.3B.5 (a.k.a. 2-3B-5) in the presence and absence of MMP-2.

VEGF [4] = biological target: T3, VEGF; experiment: FACS, ABP displayed on E. coli (CPX), labeled VEGF; MMP-2 treated against untreated
Experimental: as §1

VEGF [5] = biological target: T3, VEGF; experiment: FACS, construct displayed on E. coli (CPX), labeled VEGF; treated against untreated
VEGF [6] = biological target: T3, VEGF; experiment: Kd,app of VEGF binding to the construct displayed on E. coli, with MMP-2 against without (FIG. 13)
VEGF [7] = biological target: T3, VEGF; experiment: FACS, clone displayed on E. coli (CPX), labeled VEGF; with MMP-2 against without (FIG. 23)
Experimental: as §1, §2

VEGF [8] = biological target: T3, VEGF; experiment: Kd,app of VEGF binding to the clone displayed on E. coli, with MMP-2 against without (FIG. 14)
VEGF [9] = biological target: T3, VEGF; experiment: SPR (Biacore), VEGF amine-coupled to a CM5 chip, soluble MBP fusion injected with and without 30 nM MMP-2 (FIG. 27)
Experimental: VEGF was immobilized to the Biacore™ CM5 sensor chip surface using the standard amine coupling kit. An NHS/EDC mixture was injected first to activate the surface using the surface preparation wizard in the Biacore™ software. Then, 25 ug/mL concentration of VEGF was injected until the desired immobilization amount was reached (typically ˜5000 response units). The surface is then blocked with ethanolamine. A control reaction was performed on another surface with NHS/EDC then Ethanolamine.
After the VEGF is covalently immobilized, the maltose-binding protein (MBP) fusions of VEGF binding or VEGF binding ABP clones were injected over both the VEGF surface and the control surface. Injections were typically for 1 minute, with a few minutes of dissociation time after each injection. The clones were injected both with and without 30 nM MMP-2 enzyme. For analysis, the signal on the VEGF surface minus the signal on the control surface is the binding response (in RU).

**Q.** Does ATAVWNSMVKQSCYMQG (also called 283 MM) [JS283] bind (anti-VEGF scFv TBM)?
**A.** binds

**Q.** Does PCSEWQSMVQPRCYY (also called MMneg) [Negative control MM (does not bind anti-CTLA4)] bind [1]?
**A.** no binding

B1: GS control (designed binder)
chain: GQSGQGGSGGSGGSGGSGGSPLGLAGGGSGNFGYGKWEWDYGKWLEKVGGG
modifications: also: fused C-terminal to CPX display scaffold, letters not given here
notes: Control lacking the cysteine-cysteine disulfide bond; also called GS control polypeptide; not shown: CPX display scaffold (circularly permuted E. coli OmpX), fused C-terminal of the construct
**Q.** B1 was tested. Which “fold increase in fluorescence after enzyme cleavage” value (VEGF [2]) did it give?
**A.** < 2 fold

B2: cysteine constrained loop ABP (designed binder)
chain: GQSGQGCGSGPLGLAGGGSGNFGYGKWEWDYGKWLEKVGGC-{CPX}
modifications: disulfide 7-41 (inferred); also: fused C-terminal to CPX display scaffold, letters not given here
notes: Tested untreated, after MMP-2 treatment and after DTT reduction; also called cysteine constrained parent; cysteine constrained loop structure; not shown: CPX display scaffold (circularly permuted E. coli OmpX), fused C-terminal of the ABP
**Q.** How did the “fold increase in fluorescence in the presence of MMP-2” value (VEGF [3]) turn out when B2 was run?
**A.** ~3 fold

**Q.** What about the “fold increase in fluorescence after MMP-2 treatment” value (VEGF [4]) of the same binder?
**A.** ~2.6 fold

**Q.** What about the fold switching activity (VEGF [5]) of the same binder?
**A.** 2 fold

**Q.** And the “fold improvement in Kd,app in the presence of MMP-2” value (VEGF [6])?
**A.** ~3.4 fold

B3: ABP library clone 4-2A-11 (designed binder)
chain: GQSGQGEDEEGPLGLAGGGSGNFGYGKWEWDYGKWLEKVGGG
notes: not shown: CPX display scaffold (circularly permuted E. coli OmpX), fused C-terminal of the ABP
**Q.** How did the “fold increase in fluorescence in the presence of MMP-2” value (VEGF [7]) turn out when B3 was run?
**A.** ~5.7 fold

**Q.** Does RPPCCRDYSILECCKSD [JS314] bind (anti-VEGF scFv TBM)?
**A.** binds

**Q.** Does GAMACYNIFEYWCSAMK (also called 315 MM) [JS315] bind (anti-VEGF scFv TBM)?
**A.** binds

**Q.** Does VHAWEQLVIQELYHC (also called 311 MM) [JS311] bind (anti-VEGF scFv TBM)?
**A.** binds

**Q.** Does GHGMCYTILEDHCDRVR (also called 292 MM) [JS292] bind (anti-VEGF scFv TBM)?
**A.** binds

**Q.** Does PCSEWQSMVQPRCYYGG [JS306] bind (anti-VEGF scFv TBM)?
**A.** binds

B4: ABP library clone 2-2A-5 (designed binder)
chain: GQSGQPEWGCGPLGLAGGGSGNFGYGKWEWDYGKWLEKVGGC-{CPX}
modifications: disulfide 10-42 (inferred); also: fused C-terminal to CPX display scaffold, letters not given here
notes: Tested untreated, after MMP-2 and after DTT; not shown: CPX display scaffold (circularly permuted E. coli OmpX), fused C-terminal of the ABP
**Q.** For B4, which “fold improvement in Kd,app in the presence of MMP-2” value (VEGF [8]) is on record?
**A.** ~4.8 fold

**Q.** Does NVECCQNYNLWNCCGGR (also called 308 MM) [JS308] bind (anti-VEGF scFv TBM)?
**A.** binds

B5: maltose-binding protein (MBP) fusion of ABP clone 2.3B.5 (designed binder, not shown: large carriers; small tags and cut ends)
chain: CEYAFGPLGLAGGGSGNFGYGKWEWDYGKWLEKVGGC
modifications: also: fusion with maltose-binding protein (order not certain), disulfide Cys1–C-terminal Cys possible
notes: Soluble protein; the order MBP then ABP is my reading and is not certain; also called 2.3B.5 (2-3B-5) fusion; MBP-ABP fusion
**Q.** B5 was tested. Which “fold increase in binding response in the presence of MMP-2” value (VEGF [9]) did it give?
**A.** ~4 fold

**Q.** Does GVGLCYTILEQWCEMGR (also called 313 MM) [JS313] bind (anti-VEGF scFv TBM)?
**A.** binds
